The results in this text go back to the Immune Epitope Database (IEDB).

The term Kd denotes the concentration at which binding is half-saturated.

What all share (assay): IEDB peptide-MHC binding, purified MHC/competitive/radioactivity; filed as Kd, often an IC50 or EC50 that approximates it; ≥ and ≤ were set here for values at or beyond the usual limits of such assays
The target in experiment [1] is HLA-A*11:01.
The target in experiment [2] is HLA-A*33:01.
The target in experiment [3] is HLA-A*31:01.
In experiment [4] the target is HLA-A*68:01.
Experiment [5] has as its target HLA-A*03:01.
Setting [6] is: source organism: Vaccinia virus WR.
Where [7] appears, read: source organism: Lymphocytic choriomeningitis virus (strain Armstrong).
Setting [8] is: source organism: Mammarenavirus brazilense.
The mark [9] stands for this setting: source organism: Vaccinia virus Copenhagen.
The mark [10] stands for this setting: source organism: SARS coronavirus Tor2.
Setting [11] is: source organism: Mammarenavirus whitewaterense.

As for HTCMSECVR, the Kd in experiment [1] (setting [6]) was 67.3 nM; in experiment [2] (setting [6]) it was 324 nM; in experiment [3] (setting [6]) it was 25.4 nM; in experiment [4] (setting [6]), 57.8 nM; in experiment [5] (setting [6]) it was 3200 nM.
Take RNPYENILYK: the dissociation constant (Kd) in experiment [1] (setting [7]) is 3480 nM; in experiment [2] (setting [7]), no less than 37800 nM; in experiment [3] (setting [7]) it was 16400 nM; in experiment [4] (setting [7]) it was 5510 nM; in experiment [5] (setting [7]), 7040 nM.
With FKVAFSKHYK, the Kd in experiment [1] (setting [8]) is 2140 nM; in experiment [2] (setting [8]) it was 3190 nM; in experiment [3] (setting [8]) it was 48.3 nM; in experiment [4] (setting [8]), 582 nM; in experiment [5] (setting [8]), 279 nM.
Consider SVLDIISSK, for which the Kd was 6.72 nM in experiment [1] (setting [9]); 4410 nM in experiment [2] (setting [9]); 1670 nM in experiment [3] (setting [9]); 184 nM in experiment [4] (setting [9]); 23.4 nM in experiment [5] (setting [9]).
Consider ISRTRLYDY, for which the Kd in experiment [1] (setting [6]) was 1410 nM; in experiment [2] (setting [6]), 2190 nM; in experiment [3] (setting [6]), 1240 nM; in experiment [4] (setting [6]) it was no less than 42900 nM; in experiment [5] (setting [6]), 176 nM.
With TQIFEVYWY, the Kd in experiment [1] (setting [6]) is 353 nM; in experiment [2] (setting [6]) it was 10900 nM; in experiment [3] (setting [6]), 3800 nM; in experiment [4] (setting [6]), 733 nM; in experiment [5] (setting [6]) it was 1850 nM.
In the same order, the values of AAIDRQVSVK are 10.6 nM, no less than 70000 nM, 16500 nM, 693 nM and 257 nM.
On to VINAPIKEFK, for which the dissociation constant Kd in experiment [1] (setting [6]) worked out at 1.31 nM; in experiment [2] (setting [6]) it was 83.8 nM; in experiment [3] (setting [6]) it was 227 nM; in experiment [4] (setting [6]), 6.75 nM; in experiment [5] (setting [6]) it was 4.87 nM.
Turning to GLFCLLNRY, the dissociation constant (Kd) in experiment [1] (setting [10]) turned out to be 1340 nM; in experiment [2] (setting [10]) it was 13000 nM; in experiment [3] (setting [10]), 7160 nM; in experiment [4] (setting [10]) it was 16100 nM; in experiment [5] (setting [10]), 839 nM.
With FMSHVKSVTK, the Kd in experiment [1] (setting [6]) is 3.28 nM; in experiment [2] (setting [6]), 98.9 nM; in experiment [3] (setting [6]), 279 nM; in experiment [4] (setting [6]), 31.6 nM; in experiment [5] (setting [6]), 7.73 nM.
With PVLKAMHDKK, the dissociation constant (Kd) in experiment [1] (setting [6]) was no less than 24800 nM; in experiment [2] (setting [6]) it was no less than 70000 nM; in experiment [3] (setting [6]), no less than 70000 nM; in experiment [4] (setting [6]) it was no less than 70200 nM; in experiment [5] (setting [6]), 8510 nM.
On to ASANLAATK, for which the Kd in experiment [1] (setting [10]) is 14.4 nM; in experiment [2] (setting [10]), no less than 77700 nM; in experiment [3] (setting [10]) it was 1030 nM; in experiment [4] (setting [10]) it was 78.3 nM; in experiment [5] (setting [10]), 77.1 nM.
Regarding TYLGPLSCK, the equilibrium dissociation constant (Kd) was found to be 21.3 nM in experiment [1] (setting [7]); 154 nM in experiment [2] (setting [7]); 1690 nM in experiment [3] (setting [7]); 375 nM in experiment [4] (setting [7]); 165 nM in experiment [5] (setting [7]).
SRIFEDLVWK: the Kd is 620 nM in experiment [1] (setting [11]); no less than 59100 nM in experiment [2] (setting [11]); 8380 nM in experiment [3] (setting [11]); 572 nM in experiment [4] (setting [11]); 872 nM in experiment [5] (setting [11]).
For the sequence LFDFVNFVK, the Kd is 145 nM in experiment [1] (setting [6]); 9100 nM in experiment [2] (setting [6]); 798 nM in experiment [3] (setting [6]); 128 nM in experiment [4] (setting [6]); 812 nM in experiment [5] (setting [6]).
For EIMDKEQLLK the same measures were 87.8 nM, 9850 nM, no less than 50900 nM, 5.42 nM and 1320 nM.
Consider LSYIYSEIK, for which the Kd worked out at 27.3 nM in experiment [1] (setting [6]); 1590 nM in experiment [2] (setting [6]); 8600 nM in experiment [3] (setting [6]); 252 nM in experiment [4] (setting [6]); 26 nM in experiment [5] (setting [6]).
As for TVVIGTSKFY, the dissociation constant Kd in experiment [1] (setting [10]) turned out to be 809 nM; in experiment [2] (setting [10]) it was 1240 nM; in experiment [3] (setting [10]), 1860 nM; in experiment [4] (setting [10]), 1500 nM; in experiment [5] (setting [10]), 1100 nM.
In the case of ILSDIISAEK, the Kd turned out to be 0.829 nM in experiment [1] (setting [6]); 1380 nM in experiment [2] (setting [6]); 14.5 nM in experiment [3] (setting [6]); 4.29 nM in experiment [4] (setting [6]); 0.501 nM in experiment [5] (setting [6]).
For PVYISQFSY the same measures were 1750 nM, 16200 nM, no less than 25900 nM, no less than 22400 nM and 16300 nM.
